Paper PMC9352680, “A comprehensive thermodynamic model for RNA binding by the Saccharomyces cerevisiae Pumilio protein PUF4”

Target: T1, PUF4 RNA-binding domain (Saccharomyces cerevisiae, UniProt P25339 537-888)
T1 sequence: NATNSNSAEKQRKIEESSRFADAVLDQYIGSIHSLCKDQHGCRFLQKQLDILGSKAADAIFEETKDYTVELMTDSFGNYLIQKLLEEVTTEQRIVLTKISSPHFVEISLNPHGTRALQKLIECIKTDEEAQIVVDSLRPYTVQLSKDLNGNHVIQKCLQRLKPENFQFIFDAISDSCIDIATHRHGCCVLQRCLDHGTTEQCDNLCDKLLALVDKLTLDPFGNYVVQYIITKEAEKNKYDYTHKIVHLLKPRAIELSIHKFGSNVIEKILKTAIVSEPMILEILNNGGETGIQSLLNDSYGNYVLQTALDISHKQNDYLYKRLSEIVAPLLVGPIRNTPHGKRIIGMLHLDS
Assay: Mg; RNA-MaP; 20 mM Na-HEPES pH 7.4, 30 mM KOAc, 0.75 mM MgCl2, 0.1% Tween-20, 5% glycerol, 0.1 mg/mL BSA, 2 mM DTT; 25 C; 0.0125-409.6 nM protein
Settings: tags: N-His6-TEV cleaved; C-SNAP kept, Cy3B-labelled; label: tethered on chip by stalled RNA polymerase

With UCUCUUUGUAUCUCUCUCUU (ssRNA) [Ic_S1_P3E.1_K3.1_C3.1_H3.1_A3.1_[A6C]_F3.1_[A8C]_T3.1] as the binder, how does the Kd read?
Its Kd is 97.4 nM.

UCUCUUUGUAAUCGACUCUCUU (ssRNA) [Ic_S1_P5E.1_K5.1_C5.1_H5.1_A5.1_[T5A]_[A7C]_F5.1_[T8G]_[T9A]_[A10C]_T5.1] was tested. Which Kd did it give?
The Kd was 1540 nM.

With UCUCUUUGUAAACGCUUCUCUU (ssRNA) [Ic_S1_P5E.1_K5.1_C5.1_H5.1_A5.1_[T5A]_[T6A]_[A7C]_F5.1_[T8G]_[T9C]_[A10T]_T5.1] as the binder, how does the Kd read?
The Kd was 854 nM.

UCUCUUUGUAUAUGAUUCUCUU (ssRNA) [Ic_S1_P5E.1_K5.1_C5.1_H5.1_A5.1_[T6A]_[A7T]_F5.1_[T8G]_[T9A]_[A10T]_T5.1] was tested. Which Kd did it give?
Its Kd is 12.1 nM.

Which Kd does the source give for UCUCUUUGUAAACUGGUCUCUU (ssRNA) [Ic_S1_P5E.1_K5.1_C5.1_H5.1_A5.1_[T5A]_[T6A]_[A7C]_F5.1_[T9G]_[A10G]_T5.1] here?
Its Kd is 16.9 nM.

Which Kd does the source give for UCUCUUUGUAACUAGUUCUCUU (ssRNA) [Ic_S1_P5E.1_K5.1_C5.1_H5.1_A5.1_[T5A]_[T6C]_[A7T]_F5.1_[T8A]_[T9G]_[A10T]_T5.1] here?
Its Kd is 642 nM.

With UCUCUUUGUAUCUCGCUCUCUU (ssRNA) [Ic_S1_P5E.1_K5.1_C5.1_H5.1_A5.1_[T6C]_[A7T]_F5.1_[T8C]_[T9G]_[A10C]_T5.1] as the binder, how does the Kd read?
The Kd was 160 nM.

With UCUCUUUGUACGUGCCUCUCUU (ssRNA) [Ic_S1_P5E.1_K5.1_C5.1_H5.1_A5.1_[T5C]_[T6G]_[A7T]_F5.1_[T8G]_[T9C]_[A10C]_T5.1] as the binder, how does the Kd read?
The Kd was 583 nM.

For UCUCUUUGUAGCAACCUCUCUU (ssRNA) [Ic_S1_P5E.1_K5.1_C5.1_H5.1_A5.1_[T5G]_[T6C]_F5.1_[T8A]_[T9C]_[A10C]_T5.1], which Kd is on record?
Its Kd is 1850 nM.

How did the Kd turn out when UCUCUUUGUACAGCCCUCUCUU (ssRNA) [Ic_S1_P5E.1_K5.1_C5.1_H5.1_A5.1_[T5C]_[T6A]_[A7G]_F5.1_[T8C]_[T9C]_[A10C]_T5.1] was run?
The Kd was 142 nM.

UCUCUUUGUAAACACUUCUCUU (ssRNA) [Ic_S1_P5E.1_K5.1_C5.1_H5.1_A5.1_[T5A]_[T6A]_[A7C]_F5.1_[T8A]_[T9C]_[A10T]_T5.1] was tested. Which Kd did it give?
Its Kd is 666 nM.

With UCUCUUUGUAUUUCUCUCUU (ssRNA) [Ic_S1_P3E.1_K3.1_C3.1_H3.1_A3.1_[A6T]_F3.1_[A8C]_T3.1] as the binder, how does the Kd read?
The Kd was 111 nM.

With UCUCUUUGUAAAUCCGUCUCUU (ssRNA) [Ic_S1_P5E.1_K5.1_C5.1_H5.1_A5.1_[T5A]_[T6A]_[A7T]_F5.1_[T8C]_[T9C]_[A10G]_T5.1] as the binder, how does the Kd read?
The Kd was 747 nM.

How did the Kd turn out when UCUCUUUGUAUACCGAUCUCUU (ssRNA) [Ic_S1_P5E.1_K5.1_C5.1_H5.1_A5.1_[T6A]_[A7C]_F5.1_[T8C]_[T9G]_T5.1] was run?
Its Kd is 450 nM.

For UCUCUUUGUAUGCCGGUCUCUU (ssRNA) [Ic_S1_P5E.1_K5.1_C5.1_H5.1_A5.1_[T6G]_[A7C]_F5.1_[T8C]_[T9G]_[A10G]_T5.1], which Kd is on record?
Its Kd is over 2300 nM.

With UCUCUUUGUAGCCUACUCUCUU (ssRNA) [Ic_S1_P5E.1_K5.1_C5.1_H5.1_A5.1_[T5G]_[T6C]_[A7C]_F5.1_[T9A]_[A10C]_T5.1] as the binder, how does the Kd read?
The Kd was 48.9 nM.

UCUCUUUGUAGCUGUAUCUCUU (ssRNA) [Ic_S1_P5E.1_K5.1_C5.1_H5.1_A5.1_[T5G]_[T6C]_[A7T]_F5.1_[T8G]_T5.1] was tested. Which Kd did it give?
Its Kd is 47.8 nM.

Which Kd does the source give for UCUCUUUGUACACACGUCUCUU (ssRNA) [Ic_S1_P5E.1_K5.1_C5.1_H5.1_A5.1_[T5C]_[T6A]_[A7C]_F5.1_[T8A]_[T9C]_[A10G]_T5.1] here?
The Kd was 122 nM.

UCUCUUUGUAGUUCCUUCUCUU (ssRNA) [Ic_S1_P5E.1_K5.1_C5.1_H5.1_A5.1_[T5G]_[A7T]_F5.1_[T8C]_[T9C]_[A10T]_T5.1] was tested. Which Kd did it give?
The Kd was 1760 nM.

How did the Kd turn out when UCUCUUUGUAGCGUUAUCUCUU (ssRNA) [Ic_S1_P5E.1_K5.1_C5.1_H5.1_A5.1_[T5G]_[T6C]_[A7G]_F5.1_T5.1] was run?
The Kd was 36.4 nM.

Which Kd does the source give for UCUCUUUGUAACCUAGUCUCUU (ssRNA) [Ic_S1_P5E.1_K5.1_C5.1_H5.1_A5.1_[T5A]_[T6C]_[A7C]_F5.1_[T9A]_[A10G]_T5.1] here?
The Kd was 4.64 nM.

UCUCUUUGUAAUUUAGUCUCUU (ssRNA) [Ic_S1_P5E.1_K5.1_C5.1_H5.1_A5.1_[T5A]_[A7T]_F5.1_[T9A]_[A10G]_T5.1] was tested. Which Kd did it give?
Its Kd is 3.08 nM.

How did the Kd turn out when UCUCUUUGUAUGUUUCUCUU (ssRNA) [Ic_S1_P3E.1_K3.1_C3.1_H3.1_A3.1_[A6G]_F3.1_[A8T]_T3.1] was run?
Its Kd is 49.3 nM.

With UCUCUUUGUAUUUUCGUCUCUU (ssRNA) [Ic_S1_P5E.1_K5.1_C5.1_H5.1_A5.1_[A7T]_F5.1_[T9C]_[A10G]_T5.1] as the binder, how does the Kd read?
Its Kd is 37.6 nM.

Which Kd does the source give for UCUCUUUGUAUGUCCUUCUCUU (ssRNA) [Ic_S1_P5E.1_K5.1_C5.1_H5.1_A5.1_[T6G]_[A7T]_F5.1_[T8C]_[T9C]_[A10T]_T5.1] here?
The Kd was 88.1 nM.

UCUCUUUGUAUUGUCUUCUCUU (ssRNA) [Ic_S1_P5E.1_K5.1_C5.1_H5.1_A5.1_[A7G]_F5.1_[T9C]_[A10T]_T5.1] was tested. Which Kd did it give?
Its Kd is 101 nM.

Which Kd does the source give for UCUCUUUGUACCUGGCUCUCUU (ssRNA) [Ic_S1_P5E.1_K5.1_C5.1_H5.1_A5.1_[T5C]_[T6C]_[A7T]_F5.1_[T8G]_[T9G]_[A10C]_T5.1] here?
The Kd was 489 nM.

UCUCUUUGUAAGCUUUUCUCUU (ssRNA) [Ic_S1_P5E.1_K5.1_C5.1_H5.1_A5.1_[T5A]_[T6G]_[A7C]_F5.1_[A10T]_T5.1] was tested. Which Kd did it give?
The Kd was 643 nM.

Which Kd does the source give for UCUCUUUGUACCUGCCUCUCUU (ssRNA) [Ic_S1_P5E.1_K5.1_C5.1_H5.1_A5.1_[T5C]_[T6C]_[A7T]_F5.1_[T8G]_[T9C]_[A10C]_T5.1] here?
Its Kd is 353 nM.

Which Kd does the source give for UCUCUUUGUAUCGCCGUCUCUU (ssRNA) [Ic_S1_P5E.1_K5.1_C5.1_H5.1_A5.1_[T6C]_[A7G]_F5.1_[T8C]_[T9C]_[A10G]_T5.1] here?
Its Kd is over 2300 nM.

With UCUCUUUGUACAUGUUUCUCUU (ssRNA) [Ic_S1_P5E.1_K5.1_C5.1_H5.1_A5.1_[T5C]_[T6A]_[A7T]_F5.1_[T8G]_[A10T]_T5.1] as the binder, how does the Kd read?
Its Kd is 27.2 nM.

UCUCUUUGUAACUGACUCUCUU (ssRNA) [Ic_S1_P5E.1_K5.1_C5.1_H5.1_A5.1_[T5A]_[T6C]_[A7T]_F5.1_[T8G]_[T9A]_[A10C]_T5.1] was tested. Which Kd did it give?
Its Kd is 448 nM.
